Laboratory results published in the supplement of paper PMC10065799, “High-throughput profiling of sequence recognition by tyrosine kinases and SH2 domains using bacterial peptide display” (eLife, 2023).

Legend:
[1] = target: c-Src SH2; assay: SH2 binding enrichment of the phosphorylated peptide, bacterial display (enrichment ratio); higher = better substrate or ligand; peptides without Tyr show the background
[2] = target: SHP2-C SH2; assay: as above
[3] = target: Grb2 SH2 (UniProt P62993); assay: as above
[4] = target: Jak2 (UniProt O60674); assay: phosphorylation enrichment, bacterial display (enrichment ratio); higher = better substrate or ligand; peptides without Tyr show the background
[5] = target: Fes (UniProt P07332); assay: as above
[6] = target: EPHB2 (UniProt P29323); assay: as above
[7] = target: FGFR1 (UniProt P11362); assay: as above
[8] = test system: AncSZ; assay: as above
[9] = target: MERTK (UniProt Q12866); assay: as above
[10] = target: Hck (UniProt P08631); assay: as above
[11] = target: EPHB1 (UniProt P54762); assay: as above
[12] = target: FGFR3 (UniProt P22607); assay: as above
[13] = test system: c-Abl (mouse); assay: as above
[14] = target: Fyn (UniProt P06241); assay: as above
[15] = test system: c-Src; assay: as above
[16] = test system: Fer (mouse); assay: as above
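Wherever SH2 binding enrichment of the phosphorylated peptide, bacterial display is given: peptide library displayed on the E. coli surface as eCPX fusions, selected cells deep-sequenced, score is each peptide's frequency after selection divided by its frequency in the input.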
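Wherever phosphorylation enrichment, bacterial display is given: 11-residue human phosphosite peptides and single-mutation variants displayed on the E. coli surface, counted by deep sequencing, each peptide's frequency after selection divided by its frequency in the unselected input library; frequency after pTyr selection over input frequency; kinase dosed for 20-30% of maximal phosphorylation in three min.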

Sequence of Fyn (P06241 whole entry, looked up): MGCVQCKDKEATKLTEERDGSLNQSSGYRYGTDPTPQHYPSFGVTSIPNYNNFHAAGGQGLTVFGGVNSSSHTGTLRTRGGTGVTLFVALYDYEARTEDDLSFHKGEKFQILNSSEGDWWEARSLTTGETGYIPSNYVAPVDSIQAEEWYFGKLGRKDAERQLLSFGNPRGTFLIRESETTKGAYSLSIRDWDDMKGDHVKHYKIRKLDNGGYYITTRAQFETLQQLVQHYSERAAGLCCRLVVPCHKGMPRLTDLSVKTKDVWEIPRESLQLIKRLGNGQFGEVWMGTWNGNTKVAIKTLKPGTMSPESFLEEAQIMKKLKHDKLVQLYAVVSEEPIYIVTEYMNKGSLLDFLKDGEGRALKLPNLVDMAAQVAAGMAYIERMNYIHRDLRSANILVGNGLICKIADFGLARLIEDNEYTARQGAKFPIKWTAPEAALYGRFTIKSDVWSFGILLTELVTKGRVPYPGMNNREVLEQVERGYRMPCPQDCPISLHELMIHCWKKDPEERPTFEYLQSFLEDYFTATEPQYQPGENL
Sequence of EPHB1 (P54762 whole entry, looked up): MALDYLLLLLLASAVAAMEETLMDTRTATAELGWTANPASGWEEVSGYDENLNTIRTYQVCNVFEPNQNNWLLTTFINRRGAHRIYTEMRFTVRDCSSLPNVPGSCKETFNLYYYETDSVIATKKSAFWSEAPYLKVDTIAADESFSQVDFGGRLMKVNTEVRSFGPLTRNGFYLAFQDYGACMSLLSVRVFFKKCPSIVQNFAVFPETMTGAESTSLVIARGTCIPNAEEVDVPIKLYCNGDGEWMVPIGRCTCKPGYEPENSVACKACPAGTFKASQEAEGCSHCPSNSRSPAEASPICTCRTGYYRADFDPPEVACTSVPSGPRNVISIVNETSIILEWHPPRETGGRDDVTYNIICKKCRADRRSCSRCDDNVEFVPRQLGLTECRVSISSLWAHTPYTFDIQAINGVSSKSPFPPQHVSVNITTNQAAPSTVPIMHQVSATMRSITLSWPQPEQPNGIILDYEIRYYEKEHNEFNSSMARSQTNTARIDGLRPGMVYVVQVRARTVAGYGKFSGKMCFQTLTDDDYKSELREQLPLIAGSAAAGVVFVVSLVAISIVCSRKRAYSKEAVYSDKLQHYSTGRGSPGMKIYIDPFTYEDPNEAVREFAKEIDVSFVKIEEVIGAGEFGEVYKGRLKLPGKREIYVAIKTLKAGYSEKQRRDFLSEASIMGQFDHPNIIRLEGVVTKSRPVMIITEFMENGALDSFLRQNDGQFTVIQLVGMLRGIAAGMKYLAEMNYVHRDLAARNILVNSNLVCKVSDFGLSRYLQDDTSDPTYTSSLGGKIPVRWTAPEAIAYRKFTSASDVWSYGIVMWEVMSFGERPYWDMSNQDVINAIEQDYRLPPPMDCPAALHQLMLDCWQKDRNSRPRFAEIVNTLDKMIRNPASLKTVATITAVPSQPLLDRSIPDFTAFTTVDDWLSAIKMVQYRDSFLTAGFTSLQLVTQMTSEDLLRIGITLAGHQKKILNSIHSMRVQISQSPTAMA
Sequence of FGFR3 (P22607 whole entry, looked up): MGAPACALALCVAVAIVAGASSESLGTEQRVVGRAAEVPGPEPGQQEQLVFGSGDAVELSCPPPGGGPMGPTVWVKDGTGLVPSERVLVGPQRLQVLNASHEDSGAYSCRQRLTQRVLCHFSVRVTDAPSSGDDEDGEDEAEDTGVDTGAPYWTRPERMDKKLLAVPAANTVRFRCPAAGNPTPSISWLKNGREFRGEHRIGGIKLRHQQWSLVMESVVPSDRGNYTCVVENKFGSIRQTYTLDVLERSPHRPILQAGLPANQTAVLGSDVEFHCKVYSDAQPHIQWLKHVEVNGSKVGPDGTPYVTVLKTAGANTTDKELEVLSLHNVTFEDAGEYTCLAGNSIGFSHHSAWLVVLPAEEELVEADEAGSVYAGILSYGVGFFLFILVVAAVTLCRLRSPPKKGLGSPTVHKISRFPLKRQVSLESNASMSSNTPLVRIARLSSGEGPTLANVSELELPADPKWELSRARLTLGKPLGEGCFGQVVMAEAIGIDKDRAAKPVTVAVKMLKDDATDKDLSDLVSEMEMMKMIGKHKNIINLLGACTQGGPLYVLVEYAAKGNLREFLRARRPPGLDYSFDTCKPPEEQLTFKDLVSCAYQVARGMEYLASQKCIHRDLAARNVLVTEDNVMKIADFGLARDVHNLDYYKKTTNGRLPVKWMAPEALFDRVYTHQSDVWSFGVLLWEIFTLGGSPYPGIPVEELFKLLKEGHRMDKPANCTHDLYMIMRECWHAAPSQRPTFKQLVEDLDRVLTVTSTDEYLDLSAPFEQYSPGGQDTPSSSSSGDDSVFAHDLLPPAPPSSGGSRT
Sequence of Hck (P08631 whole entry, looked up): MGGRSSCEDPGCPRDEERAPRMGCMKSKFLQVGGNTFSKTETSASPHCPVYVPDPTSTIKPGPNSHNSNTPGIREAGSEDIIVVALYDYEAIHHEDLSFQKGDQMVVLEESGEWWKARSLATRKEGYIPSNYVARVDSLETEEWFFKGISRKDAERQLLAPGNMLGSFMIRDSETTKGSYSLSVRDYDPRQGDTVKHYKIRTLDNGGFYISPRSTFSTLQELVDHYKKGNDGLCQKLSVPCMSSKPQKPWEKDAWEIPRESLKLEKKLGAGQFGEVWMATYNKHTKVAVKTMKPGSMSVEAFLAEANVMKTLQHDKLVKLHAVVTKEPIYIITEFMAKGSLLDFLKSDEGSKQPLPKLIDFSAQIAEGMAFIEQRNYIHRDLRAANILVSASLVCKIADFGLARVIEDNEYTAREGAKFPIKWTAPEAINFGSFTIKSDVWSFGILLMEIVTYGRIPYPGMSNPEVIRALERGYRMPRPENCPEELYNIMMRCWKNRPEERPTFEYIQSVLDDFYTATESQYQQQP
Sequence of MERTK (Q12866 whole entry, looked up): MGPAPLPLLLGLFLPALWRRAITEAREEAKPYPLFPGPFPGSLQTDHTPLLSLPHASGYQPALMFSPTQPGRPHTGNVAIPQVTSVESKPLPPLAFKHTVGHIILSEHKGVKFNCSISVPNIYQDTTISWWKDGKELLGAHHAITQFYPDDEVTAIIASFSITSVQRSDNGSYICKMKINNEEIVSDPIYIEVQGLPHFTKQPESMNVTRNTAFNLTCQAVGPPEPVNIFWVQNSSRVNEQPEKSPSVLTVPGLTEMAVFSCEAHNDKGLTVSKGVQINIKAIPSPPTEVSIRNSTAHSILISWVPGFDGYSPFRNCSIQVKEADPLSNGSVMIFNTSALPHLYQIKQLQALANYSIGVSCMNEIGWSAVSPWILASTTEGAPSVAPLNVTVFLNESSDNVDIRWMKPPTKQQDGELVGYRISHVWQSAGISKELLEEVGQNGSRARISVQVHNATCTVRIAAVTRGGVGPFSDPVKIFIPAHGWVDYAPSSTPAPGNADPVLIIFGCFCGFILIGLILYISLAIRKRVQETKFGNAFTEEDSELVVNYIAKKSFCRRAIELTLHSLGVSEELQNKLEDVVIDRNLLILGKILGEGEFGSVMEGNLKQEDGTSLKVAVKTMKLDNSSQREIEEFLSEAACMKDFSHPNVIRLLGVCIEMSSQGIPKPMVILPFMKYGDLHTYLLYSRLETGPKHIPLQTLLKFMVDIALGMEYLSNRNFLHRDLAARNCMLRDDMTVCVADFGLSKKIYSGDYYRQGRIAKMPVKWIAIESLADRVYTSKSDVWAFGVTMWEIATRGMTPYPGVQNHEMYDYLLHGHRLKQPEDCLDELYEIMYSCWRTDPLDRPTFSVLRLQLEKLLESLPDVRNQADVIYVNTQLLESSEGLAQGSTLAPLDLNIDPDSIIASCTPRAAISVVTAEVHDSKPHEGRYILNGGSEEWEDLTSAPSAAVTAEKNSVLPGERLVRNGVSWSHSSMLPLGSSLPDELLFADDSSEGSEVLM
Sequence of Fes (P07332 whole entry, looked up): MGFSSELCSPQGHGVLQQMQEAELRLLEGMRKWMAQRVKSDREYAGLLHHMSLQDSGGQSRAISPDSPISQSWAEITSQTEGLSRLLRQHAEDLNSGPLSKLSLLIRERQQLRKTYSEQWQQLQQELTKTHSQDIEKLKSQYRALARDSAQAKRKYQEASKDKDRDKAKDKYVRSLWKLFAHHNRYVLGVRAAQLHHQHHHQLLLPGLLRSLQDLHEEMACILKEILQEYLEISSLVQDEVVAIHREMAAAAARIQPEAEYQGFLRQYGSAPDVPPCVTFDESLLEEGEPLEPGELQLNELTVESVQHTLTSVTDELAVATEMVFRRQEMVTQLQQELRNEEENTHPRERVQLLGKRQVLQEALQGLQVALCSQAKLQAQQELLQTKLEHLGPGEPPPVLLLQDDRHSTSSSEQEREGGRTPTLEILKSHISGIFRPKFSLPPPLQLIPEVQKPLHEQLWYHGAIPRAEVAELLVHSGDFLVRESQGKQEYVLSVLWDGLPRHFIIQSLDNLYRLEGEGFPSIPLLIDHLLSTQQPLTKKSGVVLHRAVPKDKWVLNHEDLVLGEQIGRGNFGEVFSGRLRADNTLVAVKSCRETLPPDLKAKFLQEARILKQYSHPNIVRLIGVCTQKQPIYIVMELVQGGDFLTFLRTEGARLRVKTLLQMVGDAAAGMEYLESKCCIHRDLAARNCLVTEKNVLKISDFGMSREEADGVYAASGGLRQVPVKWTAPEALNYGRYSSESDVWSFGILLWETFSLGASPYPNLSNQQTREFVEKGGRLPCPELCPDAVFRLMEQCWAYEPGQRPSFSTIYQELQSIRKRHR
Sequence of Grb2 SH2 (P62993 whole entry, looked up): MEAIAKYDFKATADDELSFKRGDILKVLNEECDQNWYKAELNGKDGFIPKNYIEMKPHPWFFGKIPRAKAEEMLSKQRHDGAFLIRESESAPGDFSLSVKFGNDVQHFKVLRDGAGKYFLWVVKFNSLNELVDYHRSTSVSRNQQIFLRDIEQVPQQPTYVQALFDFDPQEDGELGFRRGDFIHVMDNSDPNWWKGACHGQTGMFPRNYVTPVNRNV

Sequence | SH2 binding enrichment [1] | SH2 binding enrichment [2] | SH2 binding enrichment [3] | phosphorylation enrichment [4] | phosphorylation enrichment [5] | phosphorylation enrichment [6] | phosphorylation enrichment [7] | phosphorylation enrichment [8] | phosphorylation enrichment [9] | phosphorylation enrichment [10] | phosphorylation enrichment [11] | phosphorylation enrichment [12] | phosphorylation enrichment [13] | phosphorylation enrichment [14] | phosphorylation enrichment [15] | phosphorylation enrichment [16]
RLAKTYKTTLE [ALB_Y377_E378K] | 0.672 | 0.669 | 1.01 | 0.72 | 0.632 | 0.509 | 0.513 | 0.564 | 0.365 | 0.388 | 0.324 | 0.446 | 1.18 | 0.253 | 0.441 | 0.624
EERNPYYSSAR [MCCC2_Y520_G517R] | 2.83 | 0.875 | 0.963 | 0.923 | 0.749 | 0.5 | 0.487 | 0.942 | 0.468 | 0.828 | 0.472 | 0.552 | 0.591 | 0.654 | 1.56 | 0.505
ADARMYGDLPW [PLP1_Y207_V209D] | 0.573 | 1.09 | 0.868 | 0.71 | 0.794 | 0.506 | 0.6 | 0.766 | 0.52 | 3.49 | 0.65 | 0.7 | 0.586 | 3.54 | 2.74 | 1.43
VFGVSYDEYRY [CFTR_Y512_I507V] | 1.38 | 0.72 | 0.781 | 0.761 | 0.959 | 0.465 | 0.434 | 1.01 | 0.477 | 0.712 | 0.538 | 0.604 | 0.566 | 0.802 | 1.31 | 0.453
GMEIVYVYVKK [DNAI2_Y5] | 0.474 | 0.722 | 0.688 | 0.964 | 1.23 | 0.665 | 0.967 | 1.24 | 0.416 | 0.899 | 0.731 | 1.1 | 0.813 | 0.545 | 0.632 | 0.545
VTQEQYELFCE [CBL_Y368_YF] | 0.668 | 0.747 | 0.943 | 1.54 | 1.24 | 0.848 | 0.543 | 1.4 | 0.624 | 0.646 | 0.86 | 0.957 | 3.12 | 0.599 | 0.744 | 0.737
FIGVTYKNKED [PDGFRA_Y993_E996K_YF] | 0.566 | 0.996 | 1.08 | 0.797 | 0.922 | 0.582 | 0.458 | 0.776 | 0.386 | 0.427 | 0.422 | 0.743 | 0.567 | 0.495 | 0.426 | 0.417
DTNIAYWLHPR [POMT1_Y581] | 0.561 | 1.08 | 1.03 | 0.813 | 0.763 | 0.44 | 1.84 | 0.762 | 0.803 | 0.633 | 0.433 | 1.23 | 0.473 | 0.64 | 0.717 | 0.373
KSVSQYLEMDK [CAGE1_Y438] | 1.9 | 0.528 | 0.873 | 0.907 | 0.803 | 0.406 | 0.46 | 0.748 | 0.38 | 0.391 | 0.422 | 0.537 | 1.05 | 0.414 | 0.406 | 0.424
KACNPYKPPGP | 0.76 | 0.893 | 1.01 | 0.881 | 0.663 | 0.478 | 0.462 | 0.629 | 0.543 | 0.496 | 0.464 | 0.589 | 0.524 | 0.521 | 0.699 | 0.521
PEACDYGLGGG [GSTO1_Y239] | 0.693 | 0.559 | 0.912 | 1.11 | 1.34 | 0.887 | 1.19 | 1.78 | 0.635 | 0.739 | 1.38 | 0.816 | 1.28 | 0.691 | 1.19 | 0.656
RFLERYIYNPE [HLA-DPB1_Y57_R61P] | 0.966 | 1.28 | 1.17 | 0.935 | 1.15 | 0.675 | 0.55 | 1.1 | 1.5 | 2.11 | 0.755 | 0.671 | 0.68 | 1.75 | 3.08 | 0.636
APEVIYATPGA [ABLtide_2014] | 0.439 | 0.672 | 0.691 | 0.839 | 1.14 | 8.54 | 0.879 | 2.58 | 8.2 | 9.6 | 3.19 | 0.868 | 34.4 | 8.17 | 5.95 | 11.6
SAGSSYSISSI [PAX5_Y179_G183S] | 0.537 | 0.554 | 0.66 | 0.697 | 0.686 | 0.451 | 0.368 | 0.65 | 0.492 | 0.431 | 0.41 | 0.533 | 0.583 | 0.434 | 0.42 | 0.385
TRDVNYGWIIR [MT-CYB_Y75] | 0.55 | 1.28 | 1.22 | 0.949 | 0.999 | 0.91 | 0.344 | 0.997 | 0.756 | 0.422 | 0.542 | 0.654 | 0.595 | 0.475 | 0.423 | 0.443
LNWIYYKDQTG [RS1_Y166] | 1.18 | 1.07 | 1.38 | 2.21 | 2.51 | 1.35 | 1.4 | 2.25 | 0.787 | 1.35 | 1.58 | 2 | 1.13 | 1.32 | 1.06 | 0.888
AAVDTYCRHNF [HLA-DRB1_Y107_YF] | 0.529 | 0.593 | 0.912 | 0.88 | 1.04 | 0.516 | 0.426 | 0.794 | 0.497 | 0.501 | 0.562 | 0.715 | 0.755 | 0.415 | 0.548 | 0.589
